Data as given in article PMC11441684, “A suboptimal OCT4-SOX2 binding site facilitates the naïve-state specific function of a Klf4 enhancer”.
Changes are numbered by the printed parent chain.

B1: Nanog OS site probe (dsDNA)
DNA 1: GTTACTCTGCAGCTACTTTTGCATTACAATGGCCTTGGTGAGACTGG
DNA 2: CCAGTCTCACCAAGGCCATTGTAATGCAAAAGTAGCTGCAGAGTAAC
B2: Klf4-E1 OS site probe (dsDNA)
DNA 1: B1 DNA 1 with T17C, T25A, A26T, T30A, G31T
DNA 2: B1 DNA 2 with C17A, A18T, T22A, A23T, A31G

Experiments:
OCT4;SOX2 = OCT4;SOX2 (human;human, UniProt Q01860;P48431 1-360;1-317, |); test: EMSA; 19 nM OCT4, 16 nM SOX2; high occupancy; 12.5 mM K-Hepes pH 7.6, 50 mM NaCl, 1 mM MgCl2, 10% glycerol, 0.1% NP-40, 0.1 mg/mL BSA, 1 mM DTT, 1 ug/uL poly dG:dC, 2 nM probe, 30 C 15 min; 4% acrylamide gel, 0.5X TGE; settings: protein: recombinant;recombinant; tags: 6xHis (pSKB3-6H-TEV);6xHis (pSKB3-6H-TEV); copies: 1;1; label: Cy5 on strand 2 (extended primer S1); blunt
Sequence of OCT4;SOX2 (Q01860 whole entry, chain 1 of 2): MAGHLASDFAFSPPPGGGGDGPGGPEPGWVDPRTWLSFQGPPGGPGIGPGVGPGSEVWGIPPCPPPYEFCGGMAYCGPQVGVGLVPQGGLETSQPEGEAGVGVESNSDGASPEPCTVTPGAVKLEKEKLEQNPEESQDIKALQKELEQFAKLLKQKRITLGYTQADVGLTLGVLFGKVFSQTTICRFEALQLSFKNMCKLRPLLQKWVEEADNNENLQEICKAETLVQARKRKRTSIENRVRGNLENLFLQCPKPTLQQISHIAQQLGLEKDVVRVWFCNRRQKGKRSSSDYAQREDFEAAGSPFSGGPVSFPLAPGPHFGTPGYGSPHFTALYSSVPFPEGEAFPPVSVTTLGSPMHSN
Sequence of OCT4;SOX2 (P48431 whole entry, chain 2 of 2): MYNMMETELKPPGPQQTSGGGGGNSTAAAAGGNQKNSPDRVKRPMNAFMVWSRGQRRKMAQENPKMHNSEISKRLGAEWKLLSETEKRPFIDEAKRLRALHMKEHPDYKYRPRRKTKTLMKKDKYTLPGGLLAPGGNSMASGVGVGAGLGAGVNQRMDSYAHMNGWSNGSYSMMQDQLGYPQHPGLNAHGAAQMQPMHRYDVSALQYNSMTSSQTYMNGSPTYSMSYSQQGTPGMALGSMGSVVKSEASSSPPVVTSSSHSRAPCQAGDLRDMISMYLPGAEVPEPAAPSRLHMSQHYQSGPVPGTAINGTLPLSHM

OCT4 = OCT4 (human, UniProt Q01860 1-360); test: EMSA; 19 nM OCT4; OCT4-only band is the majority of shifted DNA in the OCT4 + SOX2 reaction; 12.5 mM K-Hepes pH 7.6, 50 mM NaCl, 1 mM MgCl2, 10% glycerol, 0.1% NP-40, 0.1 mg/mL BSA, 1 mM DTT, 1 ug/uL poly dG:dC, 2 nM probe, 30 C 15 min; 4% acrylamide gel, 0.5X TGE; settings: protein: recombinant; tags: 6xHis (pSKB3-6H-TEV); label: Cy5 on strand 2 (extended primer S1); blunt
Sequence of OCT4 (Q01860 whole entry): as the sequence (Q01860 whole entry, chain 1 of 2) above

| Binder | binding result (OCT4;SOX2) | binding result (OCT4) |
| --- | --- | --- |
| B1 | binds |  |
| B2 |  | binds |
